Target: hsp7c_human HSPA8 (UniProt P11142)

effect of a mutation on the interaction: increasing interaction
Substance: L-lactate dehydrogenase A chain (Homo sapiens) (from UniProt P00338) K5Q
